Experimental data taken from article PMC6231325.

Target: GFP_CaV2.2-HA (rabbit) (UniProt Q05152)
Assay: co-IP; competition: tsA-201 cells transfected with GFP_CaV2.2-HA, β1b, α2δ-1 and (TASK3, Cachd1 or a 1:1 mix of both) in a ratio of 2:1:2:1; IP with anti-GFP Ab, 300 mM NaCl, digitonin; α2δ-1 in IP/input normalised to no Cachd1

Chain of UniProt Q05152 (Q05152 whole entry): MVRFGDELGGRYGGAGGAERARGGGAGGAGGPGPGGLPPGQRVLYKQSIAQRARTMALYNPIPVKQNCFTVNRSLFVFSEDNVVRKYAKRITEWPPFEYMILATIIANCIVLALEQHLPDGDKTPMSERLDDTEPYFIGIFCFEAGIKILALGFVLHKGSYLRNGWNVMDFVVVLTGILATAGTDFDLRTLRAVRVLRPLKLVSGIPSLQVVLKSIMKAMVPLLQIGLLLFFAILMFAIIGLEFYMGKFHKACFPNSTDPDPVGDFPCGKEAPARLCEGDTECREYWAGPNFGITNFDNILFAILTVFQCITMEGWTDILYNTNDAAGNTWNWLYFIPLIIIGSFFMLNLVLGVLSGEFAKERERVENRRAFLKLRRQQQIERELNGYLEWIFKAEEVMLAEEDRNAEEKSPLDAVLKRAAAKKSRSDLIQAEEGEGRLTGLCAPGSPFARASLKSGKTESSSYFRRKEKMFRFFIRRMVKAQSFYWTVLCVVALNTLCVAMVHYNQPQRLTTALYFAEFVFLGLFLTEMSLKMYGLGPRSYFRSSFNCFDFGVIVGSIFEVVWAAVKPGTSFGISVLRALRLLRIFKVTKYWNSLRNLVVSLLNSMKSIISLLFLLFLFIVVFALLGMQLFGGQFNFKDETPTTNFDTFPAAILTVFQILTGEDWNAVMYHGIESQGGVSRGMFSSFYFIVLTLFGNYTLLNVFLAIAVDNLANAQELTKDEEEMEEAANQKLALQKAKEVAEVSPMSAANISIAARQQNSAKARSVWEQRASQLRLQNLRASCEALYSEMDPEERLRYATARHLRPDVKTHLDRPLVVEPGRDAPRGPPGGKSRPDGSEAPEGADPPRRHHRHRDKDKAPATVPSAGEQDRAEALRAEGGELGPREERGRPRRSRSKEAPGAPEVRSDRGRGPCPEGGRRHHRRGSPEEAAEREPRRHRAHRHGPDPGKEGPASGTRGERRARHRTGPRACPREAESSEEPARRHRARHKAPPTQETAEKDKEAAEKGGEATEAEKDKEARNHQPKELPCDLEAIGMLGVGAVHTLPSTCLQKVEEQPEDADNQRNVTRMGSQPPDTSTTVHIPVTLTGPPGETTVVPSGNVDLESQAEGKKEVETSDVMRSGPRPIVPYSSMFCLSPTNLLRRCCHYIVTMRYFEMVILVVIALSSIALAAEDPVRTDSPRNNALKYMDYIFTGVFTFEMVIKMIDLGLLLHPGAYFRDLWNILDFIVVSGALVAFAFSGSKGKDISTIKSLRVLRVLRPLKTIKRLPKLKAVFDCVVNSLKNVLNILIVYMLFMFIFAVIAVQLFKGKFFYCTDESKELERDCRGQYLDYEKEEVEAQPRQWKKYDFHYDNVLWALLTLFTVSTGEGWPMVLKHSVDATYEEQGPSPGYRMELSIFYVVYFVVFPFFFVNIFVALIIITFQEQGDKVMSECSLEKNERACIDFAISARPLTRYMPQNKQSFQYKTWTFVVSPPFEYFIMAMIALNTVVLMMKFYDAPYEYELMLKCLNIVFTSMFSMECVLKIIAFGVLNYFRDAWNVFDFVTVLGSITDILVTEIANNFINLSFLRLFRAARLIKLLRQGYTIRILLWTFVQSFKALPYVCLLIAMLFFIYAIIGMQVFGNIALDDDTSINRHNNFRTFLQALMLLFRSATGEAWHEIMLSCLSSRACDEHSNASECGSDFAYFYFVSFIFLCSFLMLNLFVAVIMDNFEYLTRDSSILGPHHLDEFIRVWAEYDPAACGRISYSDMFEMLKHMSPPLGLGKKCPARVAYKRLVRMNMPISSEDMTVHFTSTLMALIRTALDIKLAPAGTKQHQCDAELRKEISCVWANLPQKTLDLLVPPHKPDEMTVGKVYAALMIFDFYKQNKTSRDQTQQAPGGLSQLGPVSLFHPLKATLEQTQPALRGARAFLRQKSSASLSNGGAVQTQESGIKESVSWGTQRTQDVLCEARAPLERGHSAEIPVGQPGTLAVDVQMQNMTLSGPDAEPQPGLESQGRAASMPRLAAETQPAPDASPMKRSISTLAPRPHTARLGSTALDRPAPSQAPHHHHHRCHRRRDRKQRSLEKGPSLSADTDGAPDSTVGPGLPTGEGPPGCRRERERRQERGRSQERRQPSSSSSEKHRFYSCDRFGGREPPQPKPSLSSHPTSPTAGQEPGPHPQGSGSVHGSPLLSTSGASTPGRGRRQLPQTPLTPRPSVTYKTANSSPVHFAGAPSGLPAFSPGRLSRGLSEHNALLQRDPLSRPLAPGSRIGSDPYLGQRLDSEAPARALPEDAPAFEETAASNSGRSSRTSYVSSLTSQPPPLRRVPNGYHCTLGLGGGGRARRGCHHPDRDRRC

percent reduction of the coIP of α2δ-1 with GFP CaV2.2 (1× Cachd1): 71%
Substance: Cachd1 (natural protein)
